Reference: article PMC3945083

Tests used:
[1] = target: Flag-PARP-1 (UniProt P09874 1-1014); assay: EMSA
[2] = target: PARP-1 (purified) (UniProt P09874 1-1014); assay: pull-down
Sequence of PARP-1 (purified) (P09874 whole entry): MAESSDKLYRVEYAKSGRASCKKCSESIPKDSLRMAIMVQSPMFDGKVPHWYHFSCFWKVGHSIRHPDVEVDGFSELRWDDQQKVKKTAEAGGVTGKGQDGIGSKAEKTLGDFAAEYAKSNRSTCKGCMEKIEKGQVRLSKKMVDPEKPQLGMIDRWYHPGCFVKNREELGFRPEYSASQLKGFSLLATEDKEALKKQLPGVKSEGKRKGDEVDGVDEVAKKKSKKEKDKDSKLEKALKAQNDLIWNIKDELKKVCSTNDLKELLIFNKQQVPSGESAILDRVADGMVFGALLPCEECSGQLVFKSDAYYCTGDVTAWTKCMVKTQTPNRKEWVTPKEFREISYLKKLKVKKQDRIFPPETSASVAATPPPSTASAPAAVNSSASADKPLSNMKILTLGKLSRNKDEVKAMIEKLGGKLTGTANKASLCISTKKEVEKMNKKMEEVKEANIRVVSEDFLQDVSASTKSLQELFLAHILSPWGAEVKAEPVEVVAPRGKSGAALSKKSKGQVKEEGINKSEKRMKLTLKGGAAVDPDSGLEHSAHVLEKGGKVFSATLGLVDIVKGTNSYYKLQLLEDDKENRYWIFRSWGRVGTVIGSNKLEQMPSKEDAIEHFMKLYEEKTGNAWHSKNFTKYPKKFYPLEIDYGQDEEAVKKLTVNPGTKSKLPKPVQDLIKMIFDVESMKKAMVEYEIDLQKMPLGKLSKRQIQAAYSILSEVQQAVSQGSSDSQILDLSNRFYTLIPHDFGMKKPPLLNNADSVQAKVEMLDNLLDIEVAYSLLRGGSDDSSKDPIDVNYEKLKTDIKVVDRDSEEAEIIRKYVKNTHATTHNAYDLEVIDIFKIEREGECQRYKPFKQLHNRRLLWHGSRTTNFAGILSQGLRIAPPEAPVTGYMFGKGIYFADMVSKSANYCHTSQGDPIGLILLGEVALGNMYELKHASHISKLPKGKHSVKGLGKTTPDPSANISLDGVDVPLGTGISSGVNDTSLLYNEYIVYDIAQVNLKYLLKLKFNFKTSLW

Sequence of Flag-PARP-1 (P09874 whole entry): as above

B1: WT NQO1-ARE (dsDNA)
DNA 1: AAATCGCAGTCACAGTGACTCAGCAGAATCTGAGCCTAGGG
DNA 2: CCCTAGGCTCAGATTCTGCTGAGTCACTGTGACTGCGATTT
Q: Does B1 bind [1]?
A: binds

Q: Does B1 bind [2]?
A: binds
